Assay results as given in patent US20250230251A1.

How the values were obtained:
[1] = target: extracellular matrix (ECM) proteins; experiment: ECM (Matrigel) ELISA, 1 µM antibody
[2] = target: extracellular matrix (ECM) proteins; experiment: ECM (Matrigel) ELISA, 0.1 µM antibody

ECM score [1]: 1.2 | ECM score [2]: 1.2
B1: P21 (antibody, human IgG1, kappa, V domains shown)
VH: QVQLQQSGPGLVKPSETLSLTCTVSGGSISNYYWTWIRQPPGKGLEWIGYISDSGSTNYNPSLKSRVTISVDTSKNQFSLKLSSVTAADTAVYYCARETIVVRGFYFYVMDVWGQGTTVTVSS
VL: AIQLTQSPSSLSASVGDRVTITCRASQGISSALAWYQQRPGKAPKLLIYDASNWESGVPSRFSGSGSGTDFTLTISSLQPEDFATYYCQQFNSYPWTFGQGTKVEIKR
